Measurements reported in US7657380.

T1: human CD30 (commercial, conjugated to digoxigenin) (human, UniProt P28908 19-379, limits assumed, conjugated to digoxigenin (DIG))
T1 sequence (looked up): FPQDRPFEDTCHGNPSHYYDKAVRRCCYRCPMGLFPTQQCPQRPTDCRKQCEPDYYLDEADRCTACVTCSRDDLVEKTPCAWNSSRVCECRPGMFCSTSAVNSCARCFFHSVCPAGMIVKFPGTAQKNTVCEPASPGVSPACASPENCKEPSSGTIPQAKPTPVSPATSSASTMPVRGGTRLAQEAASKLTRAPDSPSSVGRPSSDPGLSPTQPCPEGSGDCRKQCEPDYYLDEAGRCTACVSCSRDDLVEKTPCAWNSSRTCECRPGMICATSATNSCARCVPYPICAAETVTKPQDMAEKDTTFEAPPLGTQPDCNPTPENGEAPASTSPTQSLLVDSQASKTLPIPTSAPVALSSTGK


These binders were tested against T1, human CD30 (commercial, conjugated to …) (assay: AlphaScreen competition).

Binder | Fold IC50 vs H3/L3 [fold]
AC10 H3.24/L3 (antibody, IgG1, name in Kabat numbering, V domains shown) VH: QIQLVQSGPEVKKPGASVKVSCKASGYTFTDYYITWVRQAPGQGLEWMGWINPGSGNTKYNEKFQGRFVFSVDTSASTAYLQISSLKAEDTAVYFCANYGNYWFAYWGQGTLVTVSS VL: DIVLTQSPDSLAVSLGERATINCKASQSVDFDGDSYMNWYQQKPGQPPKVLIYAASNLESGIPARFSGSGSGTDFTLTINSLEAEDAATYYCQQSNEDPWTFGGGTKVEIK | 0.03
AC10 H3.43/L3 (antibody, IgG1, name in Kabat numbering, V domains shown) VH: QIQLVQSGPEVKKPGASVKVSCKASGYTFTDYYITWVRQAPGQGLEWMGWIYPGSGNTKYNEKFQGRFVFSMDTSASTAYLQISSLKAEDTAVYFCANYGNYWFAYWGQGTLVTVSS VL: DIVLTQSPDSLAVSLGERATINCKASQSVDFDGDSYMNWYQQKPGQPPKVLIYAASNLESGIPARFSGSGSGTDFTLTINSLEAEDAATYYCQQSNEDPWTFGGGTKVEIK | 0.88
AC10 H3.38/L3 (antibody, IgG1, name in Kabat numbering, V domains shown) VH: QIQLVQSGPEVKKPGASVKVSCKASGYTFTDYYITWVRQAPGQGLEWMGWIYPGSGNTKYVEKFQGRFVFSVDTSASTAYLQISSLKAEDTAVYFCANYGNYWFAYWGQGTLVTVSS VL: DIVLTQSPDSLAVSLGERATINCKASQSVDFDGDSYMNWYQQKPGQPPKVLIYAASNLESGIPARFSGSGSGTDFTLTINSLEAEDAATYYCQQSNEDPWTFGGGTKVEIK | 1.14
AC10 H3.27/L3 (antibody, IgG1, name in Kabat numbering, V domains shown) VH: QIQLVQSGPEVKKPGASVKVSCKASGYTFTDYYITWVRQAPGQGLEWMGWIYAGSGNTKYNEKFQGRFVFSVDTSASTAYLQISSLKAEDTAVYFCANYGNYWFAYWGQGTLVTVSS VL: DIVLTQSPDSLAVSLGERATINCKASQSVDFDGDSYMNWYQQKPGQPPKVLIYAASNLESGIPARFSGSGSGTDFTLTINSLEAEDAATYYCQQSNEDPWTFGGGTKVEIK | 2
AC10 H3.33/L3 (antibody, IgG1, name in Kabat numbering, V domains shown) VH: QIQLVQSGPEVKKPGASVKVSCKASGYTFTDYYITWVRQAPGQGLEWMGWIYPGSGNTNYNEKFQGRFVFSVDTSASTAYLQISSLKAEDTAVYFCANYGNYWFAYWGQGTLVTVSS VL: DIVLTQSPDSLAVSLGERATINCKASQSVDFDGDSYMNWYQQKPGQPPKVLIYAASNLESGIPARFSGSGSGTDFTLTINSLEAEDAATYYCQQSNEDPWTFGGGTKVEIK | 0.5
AC10 H3.42/L3 (antibody, IgG1, name in Kabat numbering, V domains shown) VH: QIQLVQSGPEVKKPGASVKVSCKASGYTFTDYYITWVRQAPGQGLEWMGWIYPGSGNTKYNEKFQGRFVFSLDTSASTAYLQISSLKAEDTAVYFCANYGNYWFAYWGQGTLVTVSS VL: DIVLTQSPDSLAVSLGERATINCKASQSVDFDGDSYMNWYQQKPGQPPKVLIYAASNLESGIPARFSGSGSGTDFTLTINSLEAEDAATYYCQQSNEDPWTFGGGTKVEIK | 0.66
AC10 H3.36/L3 (antibody, IgG1, name in Kabat numbering, V domains shown) VH: QIQLVQSGPEVKKPGASVKVSCKASGYTFTDYYITWVRQAPGQGLEWMGWIYPGSGNTKYSEKFQGRFVFSVDTSASTAYLQISSLKAEDTAVYFCANYGNYWFAYWGQGTLVTVSS VL: DIVLTQSPDSLAVSLGERATINCKASQSVDFDGDSYMNWYQQKPGQPPKVLIYAASNLESGIPARFSGSGSGTDFTLTINSLEAEDAATYYCQQSNEDPWTFGGGTKVEIK | 1.24
AC10 H3.30/L3 (antibody, IgG1, name in Kabat numbering, V domains shown) VH: QIQLVQSGPEVKKPGASVKVSCKASGYTFTDYYITWVRQAPGQGLEWMGWIYPGNGNTKYNEKFQGRFVFSVDTSASTAYLQISSLKAEDTAVYFCANYGNYWFAYWGQGTLVTVSS VL: DIVLTQSPDSLAVSLGERATINCKASQSVDFDGDSYMNWYQQKPGQPPKVLIYAASNLESGIPARFSGSGSGTDFTLTINSLEAEDAATYYCQQSNEDPWTFGGGTKVEIK | 1.45
AC10 H3.41/L3 (antibody, IgG1, name in Kabat numbering, V domains shown) VH: QIQLVQSGPEVKKPGASVKVSCKASGYTFTDYYITWVRQAPGQGLEWMGWIYPGSGNTKYNEKFTGRFVFSVDTSASTAYLQISSLKAEDTAVYFCANYGNYWFAYWGQGTLVTVSS VL: DIVLTQSPDSLAVSLGERATINCKASQSVDFDGDSYMNWYQQKPGQPPKVLIYAASNLESGIPARFSGSGSGTDFTLTINSLEAEDAATYYCQQSNEDPWTFGGGTKVEIK | 1.38
AC10 H3.28/L3 (antibody, IgG1, name in Kabat numbering, V domains shown) VH: QIQLVQSGPEVKKPGASVKVSCKASGYTFTDYYITWVRQAPGQGLEWMGWIYVGSGNTKYNEKFQGRFVFSVDTSASTAYLQISSLKAEDTAVYFCANYGNYWFAYWGQGTLVTVSS VL: DIVLTQSPDSLAVSLGERATINCKASQSVDFDGDSYMNWYQQKPGQPPKVLIYAASNLESGIPARFSGSGSGTDFTLTINSLEAEDAATYYCQQSNEDPWTFGGGTKVEIK | 1.34
AC10 H3.39/L3 (antibody, IgG1, name in Kabat numbering, V domains shown) VH: QIQLVQSGPEVKKPGASVKVSCKASGYTFTDYYITWVRQAPGQGLEWMGWIYPGSGNTKYDEKFQGRFVFSVDTSASTAYLQISSLKAEDTAVYFCANYGNYWFAYWGQGTLVTVSS VL: DIVLTQSPDSLAVSLGERATINCKASQSVDFDGDSYMNWYQQKPGQPPKVLIYAASNLESGIPARFSGSGSGTDFTLTINSLEAEDAATYYCQQSNEDPWTFGGGTKVEIK | 1
AC10 H3.34/L3 (antibody, IgG1, name in Kabat numbering, V domains shown) VH: QIQLVQSGPEVKKPGASVKVSCKASGYTFTDYYITWVRQAPGQGLEWMGWIYPGSGNTKYAEKFQGRFVFSVDTSASTAYLQISSLKAEDTAVYFCANYGNYWFAYWGQGTLVTVSS VL: DIVLTQSPDSLAVSLGERATINCKASQSVDFDGDSYMNWYQQKPGQPPKVLIYAASNLESGIPARFSGSGSGTDFTLTINSLEAEDAATYYCQQSNEDPWTFGGGTKVEIK | 1.3
AC10 H3.29/L3 (antibody, IgG1, name in Kabat numbering, V domains shown) VH: QIQLVQSGPEVKKPGASVKVSCKASGYTFTDYYITWVRQAPGQGLEWMGWIYPGDGNTKYNEKFQGRFVFSVDTSASTAYLQISSLKAEDTAVYFCANYGNYWFAYWGQGTLVTVSS VL: DIVLTQSPDSLAVSLGERATINCKASQSVDFDGDSYMNWYQQKPGQPPKVLIYAASNLESGIPARFSGSGSGTDFTLTINSLEAEDAATYYCQQSNEDPWTFGGGTKVEIK | 1.81
AC10 H3.32/L3 (antibody, IgG1, name in Kabat numbering, V domains shown) VH: QIQLVQSGPEVKKPGASVKVSCKASGYTFTDYYITWVRQAPGQGLEWMGWIYPGSGNTIYNEKFQGRFVFSVDTSASTAYLQISSLKAEDTAVYFCANYGNYWFAYWGQGTLVTVSS VL: DIVLTQSPDSLAVSLGERATINCKASQSVDFDGDSYMNWYQQKPGQPPKVLIYAASNLESGIPARFSGSGSGTDFTLTINSLEAEDAATYYCQQSNEDPWTFGGGTKVEIK | 1.09
AC10 H3.40/L3 (antibody, IgG1, name in Kabat numbering, V domains shown) VH: QIQLVQSGPEVKKPGASVKVSCKASGYTFTDYYITWVRQAPGQGLEWMGWIYPGSGNTKYNQKFQGRFVFSVDTSASTAYLQISSLKAEDTAVYFCANYGNYWFAYWGQGTLVTVSS VL: DIVLTQSPDSLAVSLGERATINCKASQSVDFDGDSYMNWYQQKPGQPPKVLIYAASNLESGIPARFSGSGSGTDFTLTINSLEAEDAATYYCQQSNEDPWTFGGGTKVEIK | 1.83
AC10 H3.37/L3 (antibody, IgG1, name in Kabat numbering, V domains shown) VH: QIQLVQSGPEVKKPGASVKVSCKASGYTFTDYYITWVRQAPGQGLEWMGWIYPGSGNTKYTEKFQGRFVFSVDTSASTAYLQISSLKAEDTAVYFCANYGNYWFAYWGQGTLVTVSS VL: DIVLTQSPDSLAVSLGERATINCKASQSVDFDGDSYMNWYQQKPGQPPKVLIYAASNLESGIPARFSGSGSGTDFTLTINSLEAEDAATYYCQQSNEDPWTFGGGTKVEIK | 1.01
